US20190353661A1 (VANDERBILT UNIVERSITY, published 2019)

Experiments:
Assay in all cases: Phadia diagnostics and/or Western blot
[1] = biological target: T1, Cat allergen Fel d 1 (cat, UniProt P30438 23-92; P30440 18-109)
T1 sequence (looked up) 1: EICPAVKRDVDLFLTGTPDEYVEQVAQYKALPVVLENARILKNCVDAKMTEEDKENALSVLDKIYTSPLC
T1 sequence (looked up) 2: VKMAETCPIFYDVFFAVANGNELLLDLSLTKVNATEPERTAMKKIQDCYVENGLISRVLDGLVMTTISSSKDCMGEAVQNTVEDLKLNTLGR

[2] = biological target: T2, Dust mite allergen Der p 1 (dust mite (Dermatophagoides …, UniProt P08176 99-320))
T2 sequence (looked up): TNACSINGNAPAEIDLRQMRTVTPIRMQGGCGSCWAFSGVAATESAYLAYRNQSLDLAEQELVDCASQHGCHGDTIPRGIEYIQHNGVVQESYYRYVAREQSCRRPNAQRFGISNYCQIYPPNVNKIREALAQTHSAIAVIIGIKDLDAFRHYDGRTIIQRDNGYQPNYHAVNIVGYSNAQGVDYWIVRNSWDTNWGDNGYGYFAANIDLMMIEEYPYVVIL

[3] = biological target: T3, Aspergillus fumigatus allergen Asp f 1 (Aspergillus fumigatus, UniProt P67875 28-176)
T3 sequence: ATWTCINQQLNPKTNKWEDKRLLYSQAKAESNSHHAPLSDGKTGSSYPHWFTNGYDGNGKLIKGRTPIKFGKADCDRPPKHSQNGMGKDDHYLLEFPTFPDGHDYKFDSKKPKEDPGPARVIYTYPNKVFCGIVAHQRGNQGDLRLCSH

[4] = biological target: T4, Peanut allergen Ara h 6 (peanut, UniProt Q647G9 22-145)
T4 sequence (looked up): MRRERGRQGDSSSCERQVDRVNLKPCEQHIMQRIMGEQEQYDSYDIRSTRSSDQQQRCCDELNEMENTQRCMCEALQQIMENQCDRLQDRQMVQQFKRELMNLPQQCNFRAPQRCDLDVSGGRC

B1: Human IgE mAb 1B7 (antibody, V domains shown)
VH: EFQLQESGPGLVKPSETLSLNCSVSGGSISNNYWNWIRQPPGKGLEWIGYISYSGRTHYNPSLKSRVSISLHTSKNHFSLKLTSVAAADTAMYYCARESTYSYKLGDAFDIWGQGTMVTVSA
VL: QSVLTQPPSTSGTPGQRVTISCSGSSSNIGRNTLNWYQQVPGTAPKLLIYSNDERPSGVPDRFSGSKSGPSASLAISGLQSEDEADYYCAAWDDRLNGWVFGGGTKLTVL
[1]
  binding result: binds

B2: Human IgE mAb 1C14 (antibody, V domains shown)
VH: QVQLQESGPGLVKPSQTLSLTCTVSGGSISSGGFFWGWIRQHPGRDLEWIGYIFYTGSTNYNPSLKNRVTLSVDTSKNHFSLNLTSVTVADTAVYYCARQGGVRGNYYFMDVWGKGTTVTVSS
VL: DIQMTQSPSSLSASVGDRVTITCRASQSISNYLNWYQQKPGKAPKLLIYAASRLQSGVPSRFSGSGSGTELTLTISSLQPEDFATYFCQQSYNTPYSFGQGTKVEIK
notes: Natural human IgE from a hybridoma
[2]
  binding result: binds

B3: Human IgE mAb 14H4 (antibody, V domains shown)
VH: EVQLVQSGAEVKRAGESLKISCKGSGYPFATYWVGWVRQMPGKGLEWMTIIYPEDSDTRYSPSFQDHVTISADKSLSTAYLQWSSLKASDTAMYYCARVSRYYYDSRSYYPDAFDIWGQGTMVTVSS
VL: SYELTQPPSVSVSPGQTASITCSGDKLGDKYVCWYQQKPGRSPVLVVHQDTKRPSGIPERFSGSNSGDTATLTISGTQAMDEADYYCQAWDSTIGVFGPGTRVTVL
notes: as for B2
[3]
  binding result: binds

B4: Human IgE mAb 1A8 (antibody, V domains shown)
VH: QLQLQESGPGLVKPSETLSLTCSVSDDSISTPSYFWTWIRQPPGKGLEWIASIYYTGTTYYNPSLKSRVTLSVDTPKRQFFLRLSSVTAADTAVYYCARYLDYVWLRAFDVWGQGAMVTVSS
VL: EIVLTQSPATLSLSPGERATLSCRASPSVGRFLAWYQQKPGQAPRLLIYDASQRATDIPARFSASGSGTDFTLTIDSLEPEDFAIYYCQHRSNWPVTFGGGTRVEIK
notes: as for B2
[4]
  binding result: binds

B5: Human IgE mAb 8F3 (antibody, V domains shown)
VH: QLQLQESGPGLVKPSETLSLTCTVSDASIDTPSYFWSWIRQPPGKGLEWIGSIYYTGNKYSNPSLKSRVTMSVDTPKRQFSLRLSSVTAADTAVYYCARYVDYVWLRAFDIWGQGTRVTVSS
VL: EIVLTQSPATLSLSPGERATLSCRASPSAGRFLAWYQQRPGQAPRLLIYDASKRATDTPARFSGSGSGTDFNLTIASLEPEDFAVYYCQHRSNWPLTFGGGTKVEIK
notes: as for B2
[4]
  binding result: binds
